Assay results: patent publication US20260166139A1
Several values for one entry are separate records, joined by “and”; a condition that tells them apart may be missing. Identical values can stand only once.

What was measured:
[1] = target: human CTLA4 (human) (UniProt P16410); assay: ELISA, coat CTLA4 0.5 ug/ml; antibody 0 (blank)
[2] = target: human CTLA4 (human) (UniProt P16410); assay: ELISA on coated CTLA4, source Human (row of 8D2H2L2)
[3] = target: human CTLA4 (human) (UniProt P16410); assay: ELISA, coat human CTLA4 0.5 ug/ml; antibody 0 (blank)
[4] = target: CTLA4 antigen (NCBI Gene ID: 1493) obtained by TEV protease cleavage of CTLA4-mFc (Homo sapiens (Human)) (UniProt P16410); assay: BLI (Fortebio), antibody on AR2G sensor, CTLA4 in solution
[5] = target: human CTLA4 (human) (UniProt P16410); assay: ELISA, coat CTLA4 0.5 ug/ml; antibody 1:81 (start 1 ug/ml)
[6] = target: human CTLA4 (human) (UniProt P16410); assay: ELISA, coat CTLA4 0.5 ug/ml; antibody 1:243 (start 1 ug/ml)
[7] = target: CTLA4-mFc; assay: competitive ELISA, competitor B7-1; control run with 8D2H1L1
[8] = target: CTLA4-mFc; assay: competitive ELISA, competitor B7-2; control run with 8D2(Re)
[9] = target: CTLA4-mFc; assay: competitive ELISA, competitor B7-2; control run with 8D2H1L1
[10] = target: CTLA4-mFc; assay: competitive ELISA, competitor B7-2; control run with 8D2H3L3
[11] = target: human CTLA4 (human) (UniProt P16410); assay: ELISA, coat human CTLA4 0.5 ug/ml; antibody 1:27 (start 1 ug/ml)
[12] = target: human CTLA4 (human) (UniProt P16410); assay: ELISA, coat human CTLA4 0.5 ug/ml; antibody 1:243 (start 1 ug/ml)
[13] = target: monkey CTLA4-hFc (monkey); assay: ELISA, coat monkey CTLA4-hFc 0.25 ug/ml; antibody 1:3 (start 1 ug/ml)
[14] = target: monkey CTLA4-hFc (monkey); assay: ELISA, coat monkey CTLA4-hFc 0.25 ug/ml; antibody 1:9 (start 1 ug/ml)
[15] = target: monkey CTLA4-hFc (monkey); assay: ELISA, coat monkey CTLA4-hFc 0.25 ug/ml; antibody 1:243 (start 1 ug/ml)
[16] = target: monkey CTLA4-hFc (monkey); assay: ELISA, coat monkey CTLA4-hFc 0.25 ug/ml; antibody 1:729 (start 1 ug/ml)
[17] = target: CTLA4-mFc; assay: competitive ELISA, CTLA4-mFc coated, competitor B7/2-His; antibody 1 µg/ml
[18] = target: CTLA4-mFc; assay: competitive ELISA, B7/1-hFc coated (competitor), CTLA4-mFc added; antibody 5 µg/ml
[19] = target: CTLA4-mFc; assay: competitive ELISA, CTLA4-mFc coated, competitor B7/2-His; antibody 3 µg/ml diluted 1:9
[20] = target: CTLA4-mFc; assay: competitive ELISA, CTLA4-mFc coated, competitor B7/2-His; antibody 1 µg/ml diluted 1:3
[21] = target: CTLA4-mFc; assay: competitive ELISA, CTLA4-mFc coated, competitor B7/2-His; antibody 3 µg/ml diluted 1:27
[22] = target: CTLA4-mFc; assay: competitive ELISA, CTLA4-mFc coated, competitor B7/2-His; antibody 3 µg/ml diluted 1:729
[23] = target: CTLA4-mFc; assay: competitive ELISA, CTLA4-mFc coated, competitor B7/2-His; antibody 1.5 µg/ml diluted 1:9
[24] = target: CTLA4-mFc; assay: competitive ELISA, B7/1-hFc coated (competitor), CTLA4-mFc added; antibody 0 (no antibody)
[25] = target: CTLA4-mFc; assay: competitive ELISA, CTLA4-mFc coated, competitor B7/2-His; antibody 1.5 µg/ml diluted 1:243
[26] = target: CTLA4-mFc; assay: competitive ELISA, CTLA4-mFc coated, competitor B7/2-His; antibody 1.5 µg/ml diluted 1:729
[27] = target: CTLA4-mFc; assay: competitive ELISA, B7/1-hFc coated (competitor), CTLA4-mFc added; antibody 0 (no antibody); remark: listed apart in the source
[28] = target: CTLA4-mFc; assay: competitive ELISA, B7/1-hFc coated (competitor), CTLA4-mFc added; antibody 5 µg/ml diluted 1:9
[29] = target: CTLA4-mFc; assay: competitive ELISA, B7/1-hFc coated (competitor), CTLA4-mFc added; antibody 5 µg/ml diluted 1:3
[30] = target: CTLA4-mFc; assay: competitive ELISA, B7/1-hFc coated (competitor), CTLA4-mFc added; antibody 5 µg/ml diluted 1:9; remark: listed apart in the source
[31] = target: CTLA4-mFc; assay: competitive ELISA, B7/1-hFc coated (competitor), CTLA4-mFc added; antibody 5 µg/ml diluted 1:81
[32] = target: CTLA4-mFc; assay: competitive ELISA, B7/1-hFc coated (competitor), CTLA4-mFc added; antibody 5 µg/ml diluted 1:27
[33] = target: CTLA4-mFc; assay: competitive ELISA, B7/1-hFc coated (competitor), CTLA4-mFc added; antibody 5 µg/ml diluted 1:81; remark: listed apart in the source
[34] = target: CTLA4-mFc; assay: competitive ELISA, B7/1-hFc coated (competitor), CTLA4-mFc added; antibody 5 µg/ml diluted 1:243
[35] = target: CTLA4-mFc; assay: competitive ELISA, B7/1-hFc coated (competitor), CTLA4-mFc added; antibody 5 µg/ml diluted 1:729
[36] = target: CTLA4-mFc; assay: competition ELISA, coat B7/1-hFc 0.2 ug/ml (competitor), CTLA4-mFc 0.3 ug/ml detected; antibody 1:3 (start 3 ug/ml)
[37] = target: CTLA4-mFc; assay: competition ELISA, coat B7/1-hFc 0.2 ug/ml (competitor), CTLA4-mFc 0.3 ug/ml detected; antibody 1:81 (start 3 ug/ml)

Sequence of control antibody 11.2.1 (VH): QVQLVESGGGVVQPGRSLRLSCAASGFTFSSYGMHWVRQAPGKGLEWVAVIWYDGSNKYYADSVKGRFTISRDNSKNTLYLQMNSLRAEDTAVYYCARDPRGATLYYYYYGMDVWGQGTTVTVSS
Sequence of control antibody 11.2.1 (VL): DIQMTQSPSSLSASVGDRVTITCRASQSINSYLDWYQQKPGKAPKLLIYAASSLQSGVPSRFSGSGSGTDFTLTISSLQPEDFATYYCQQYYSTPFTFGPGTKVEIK
Sequence of human CTLA4 (human) (P16410 36-161 limits assumed): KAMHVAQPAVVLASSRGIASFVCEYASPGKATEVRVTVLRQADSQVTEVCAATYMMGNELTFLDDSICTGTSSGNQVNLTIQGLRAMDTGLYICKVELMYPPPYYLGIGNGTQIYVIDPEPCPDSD
Sequence of CTLA4 antigen (NCBI Gene ID: 1493) obtained by TEV protease cleavage of CTLA4-mFc (Homo sapiens (Human)) (P16410 37-161 limits assumed): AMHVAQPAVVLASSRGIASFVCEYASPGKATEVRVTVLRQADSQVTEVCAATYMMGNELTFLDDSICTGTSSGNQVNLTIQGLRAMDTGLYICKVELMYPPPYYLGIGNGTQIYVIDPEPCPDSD
Sequence of CTLA4-mFc (chain, as listed by the source limits assumed): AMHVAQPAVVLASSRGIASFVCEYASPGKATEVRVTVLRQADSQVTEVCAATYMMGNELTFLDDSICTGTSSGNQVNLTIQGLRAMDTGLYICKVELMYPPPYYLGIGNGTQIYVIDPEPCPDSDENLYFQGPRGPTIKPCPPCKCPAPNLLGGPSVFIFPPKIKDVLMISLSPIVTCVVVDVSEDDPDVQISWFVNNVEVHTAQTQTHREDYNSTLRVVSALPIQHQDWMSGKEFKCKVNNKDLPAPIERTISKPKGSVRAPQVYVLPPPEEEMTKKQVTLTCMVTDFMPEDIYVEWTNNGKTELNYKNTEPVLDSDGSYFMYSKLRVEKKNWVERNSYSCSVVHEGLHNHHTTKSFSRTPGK

Question: With control antibody 11.2.1 as the substance, how does the absorbance at 450 nm [1] read?
Answer: The absorbance at 450 nm was 0.05.

Question: And the EC50 [2]?
Answer: Its EC50 is 0.09 nM.

Question: What about the absorbance at 450 nm [3] of the same substance?
Answer: The absorbance at 450 nm was 0.072 and 0.064.

Question: And the Kd [4]?
Answer: Its Kd is 0.903 nM.

Question: And the koff [4]?
Answer: The koff was 0.000349 s⁻¹.

Question: And the kon [4]?
Answer: The kon was 387000 M⁻¹ s⁻¹.

Question: And the absorbance at 450 nm [5]?
Answer: Its absorbance at 450 nm is 1.37 and 1.53.

Question: And the absorbance at 450 nm [6]?
Answer: Its absorbance at 450 nm is 0.75 and 0.79.

Question: And the EC50 [7]?
Answer: The EC50 was 1.69 nM.

Question: What about the EC50 [8] of the same substance?
Answer: Its EC50 is 0.15 nM.

Question: What about the EC50 [9] of the same substance?
Answer: The EC50 was 0.15 nM.

Question: What about the EC50 [10] of the same substance?
Answer: The EC50 was 0.172 nM.

Question: And the absorbance at 450 nm [11]?
Answer: The absorbance at 450 nm was 2.34 and 2.29.

Question: What about the absorbance at 450 nm [12] of the same substance?
Answer: Its absorbance at 450 nm is 0.223 and 0.219.

Question: And the absorbance at 450 nm [13]?
Answer: Its absorbance at 450 nm is 1.54 and 1.46.

Question: What about the absorbance at 450 nm [14] of the same substance?
Answer: Its absorbance at 450 nm is 1.11 and 1.05.

Question: And the absorbance at 450 nm [15]?
Answer: The absorbance at 450 nm was 0.13 and 0.172.

Question: And the absorbance at 450 nm [16]?
Answer: The absorbance at 450 nm was 0.082 and 0.094.

Question: And the absorbance at 450 nm [17]?
Answer: The absorbance at 450 nm was 0.04.

Question: And the absorbance at 450 nm [18]?
Answer: The absorbance at 450 nm was 0.06.

Question: What about the absorbance at 450 nm [19] of the same substance?
Answer: The absorbance at 450 nm was 0.412 and 0.482.

Question: And the absorbance at 450 nm [20]?
Answer: Its absorbance at 450 nm is 0.05.

Question: And the absorbance at 450 nm [21]?
Answer: Its absorbance at 450 nm is 0.676 and 0.585.

Question: What about the absorbance at 450 nm [22] of the same substance?
Answer: The absorbance at 450 nm was 1.36 and 1.23.

Question: What about the absorbance at 450 nm [23] of the same substance?
Answer: Its absorbance at 450 nm is 0.479 and 0.412.

Question: What about the absorbance at 450 nm [24] of the same substance?
Answer: The absorbance at 450 nm was 0.683 and 0.735.

Question: What about the absorbance at 450 nm [25] of the same substance?
Answer: The absorbance at 450 nm was 0.93 and 0.754.

Question: What about the absorbance at 450 nm [26] of the same substance?
Answer: Its absorbance at 450 nm is 0.981 and 0.746.

Question: What about the absorbance at 450 nm [27] of the same substance?
Answer: The absorbance at 450 nm was 1.28 and 1.3.

Question: And the absorbance at 450 nm [28]?
Answer: The absorbance at 450 nm was 0.16 and 0.138.

Question: And the absorbance at 450 nm [29]?
Answer: Its absorbance at 450 nm is 0.08.

Question: What about the absorbance at 450 nm [30] of the same substance?
Answer: The absorbance at 450 nm was 0.33 and 0.3.

Question: And the absorbance at 450 nm [31]?
Answer: The absorbance at 450 nm was 0.698 and 0.66.

Question: What about the absorbance at 450 nm [32] of the same substance?
Answer: The absorbance at 450 nm was 1.14 and 1.19.

Question: And the absorbance at 450 nm [33]?
Answer: The absorbance at 450 nm was 1.17 and 1.2.

Question: What about the absorbance at 450 nm [34] of the same substance?
Answer: The absorbance at 450 nm was 1.3 and 1.31.

Question: What about the absorbance at 450 nm [35] of the same substance?
Answer: The absorbance at 450 nm was 1.32 and 1.31.

Question: What about the absorbance at 450 nm [36] of the same substance?
Answer: Its absorbance at 450 nm is 0.119 and 0.133.

Question: What about the absorbance at 450 nm [37] of the same substance?
Answer: Its absorbance at 450 nm is 0.65 and 0.613.
